Results as given in FireProtDB (doi:10.1016/j.jmb.2009.04.068).
Where “and” joins values, the source holds several entries; their conditions need not be identical. Equal entries are not always repeated.

B1: Neurotensin receptor type 1, P20789 (parent)
chain: MHLNSSVPQGTPGEPDAQPFSGPQSEMEATFLALSLSNGSGNTSESDTAGPNSDLDVNTDIYSKVLVTAIYLALFVVGTVGNSVTAFTLARKKSLQSLQSTVHYHLGSLALSDLLILLLAMPVELYNFIWVHHPWAFGDAGCRGYYFLRDACTYATALNVASLSVERYLAICHPFKAKTLMSRSRTKKFISAIWLASALLAIPMLFTMGLQNRSGDGTHPGGLVCTPIVDTATVKVVIQVNTFMSFLFPMLVISILNTVIANKLTVMVHQAAEQGRVCTVGTHNGLEHSTFNMTIEPGRVQALRHGVLVLRAVVIAFVVCWLPYHVRRLMFCYISDEQWTTFLFDFYHYFYMLTNALFYVSSAINPILYNLVSANFRQVFLSTLACLCPGWRHRRKKRPTFSRKPNSMSSNHAFSTSATRETLY

Variants of: B1
Details: Rattus norvegicus; pH 7.4; Heat treatment; Activity; Tris-HCl 50 mM; structure 4BUO; whole UniProt chain shown

Row | Variant | Tm | change of melting temperature, mutant - wild type (higher = more stable)
1 | F358A A86L H103A F342A | 50 °C | 
2 | F358A H103A I260A F342A | 50 °C | 
3 | F358A A86L I260A | 49 °C | 
4 | A86L | 37 °C and 39 °C | 
5 | F358A A86L H103A | 48 °C | 
6 | A86L F358A | 48 °C | 
7 | F358A A86L H103A I260A F342A | 50 °C | 
8 | F358A |  | 7 °C
9 | A86L I260A F342A | 47 °C | 
10 | H103A | 34 °C and 36 °C | 
11 | A86L I260A F342A F358A | 50 °C | 
12 | F358A A86L H103A I260A | 49 °C | 

Same assay, conditions: Rattus norvegicus; pH 7.4; Thermal; Activity; Tris-HCl 50 mM; structure 4BUO; whole UniProt chain shown

Row | Variant | Tm | change of melting temperature, mutant - wild type (higher = more stable)
13 | A86L | 33 °C | 8 °C
14 | A86L F358A |  | 11 °C and 10 °C
15 | F358A |  | 3 °C and 8 °C
